Source: US20100260765A1 (AstraZeneca / MedImmune, published 2010)
Changes are numbered by the printed parent chain.

Legend:
[1] = target: T1, human KDR (human, UniProt P35968 20-1356); experiment: cell-based or functional assay
[2] = target: T1, human KDR; experiment: cell-based or functional assay; remark: listed apart in the source
[3] = target: T1, human KDR; experiment: cell-based or functional assay; remark: listed apart in the source
[4] = target: T2, whole KDR-ECD (Cat. # 676490, Calbiochem) (human, UniProt P35968 20-764); experiment: ELISA, KDR-ECD coat 5 ug/mL, antibody 1 ug/mL
T2 construct: extracellular domain; Bought soluble protein; also called soluble KDR; VEGF Receptor 2 D1-7
T2 sequence (P35968 20-764): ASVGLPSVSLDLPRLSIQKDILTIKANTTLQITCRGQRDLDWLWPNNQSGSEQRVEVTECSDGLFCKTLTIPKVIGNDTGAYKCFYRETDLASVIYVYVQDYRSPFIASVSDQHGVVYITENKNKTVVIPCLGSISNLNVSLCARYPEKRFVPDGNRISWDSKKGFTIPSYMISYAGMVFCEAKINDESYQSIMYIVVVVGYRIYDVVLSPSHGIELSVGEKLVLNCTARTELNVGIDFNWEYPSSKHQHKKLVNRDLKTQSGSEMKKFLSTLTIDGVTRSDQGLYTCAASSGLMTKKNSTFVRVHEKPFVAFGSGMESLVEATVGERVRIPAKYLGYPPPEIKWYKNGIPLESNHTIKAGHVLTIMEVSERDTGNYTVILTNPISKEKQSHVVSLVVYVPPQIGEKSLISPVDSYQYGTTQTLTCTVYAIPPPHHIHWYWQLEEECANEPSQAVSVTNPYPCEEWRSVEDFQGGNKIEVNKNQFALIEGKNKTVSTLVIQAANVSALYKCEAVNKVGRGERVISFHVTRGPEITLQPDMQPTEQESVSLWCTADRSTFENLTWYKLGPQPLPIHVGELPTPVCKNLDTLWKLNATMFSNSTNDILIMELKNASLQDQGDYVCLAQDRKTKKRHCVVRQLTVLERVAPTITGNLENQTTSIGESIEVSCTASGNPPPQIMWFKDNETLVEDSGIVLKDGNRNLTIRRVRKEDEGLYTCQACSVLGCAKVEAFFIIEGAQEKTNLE
Experimental: (§1) The cross-reactivity of purified antibodies was tested against KDR mouse ortholog KDR mouse ortholog (mouse VEGFR2, or Flk-1) and human VEGFR1 (Flt-1). The ability of the antibodies to bind soluble KDR Ig4-7 domain and to the entire KDR extracellular domain (ECD) was also measured.
(§2) Cross-reactivity experiments were carried out and measured using an ELISA based assay as described in Example 6. […] Antibody controls included IgG1 and IgG4 (Sigma-Aldrich, Cat. #15154 and #14639, respectively).

[5] = target: T2, whole KDR-ECD (Cat. # 676490, …); experiment: ELISA, KDR-ECD coat 5 ug/mL, antibody 0.1 ug/mL
Experimental: as §1, §2

[6] = target: T2, whole KDR-ECD (Cat. # 676490, …); experiment: ELISA, KDR-ECD coat 5 ug/mL, antibody 0.01 ug/mL
Experimental: as §1, §2

[7] = target: T3, soluble KDR Ig4-7 domain (human, UniProt P35968 328-764); experiment: ELISA, KDR Ig4-7 coat (1:1 diln.), antibody 1 ug/mL
T3 construct: domain: Ig4-7 domain; also called b-KDRIg4-7-myc-his; Ig4-7 domain of KDR; not shown: myc-his tag of the pSecTag construct
T3 sequence (P35968 328-764): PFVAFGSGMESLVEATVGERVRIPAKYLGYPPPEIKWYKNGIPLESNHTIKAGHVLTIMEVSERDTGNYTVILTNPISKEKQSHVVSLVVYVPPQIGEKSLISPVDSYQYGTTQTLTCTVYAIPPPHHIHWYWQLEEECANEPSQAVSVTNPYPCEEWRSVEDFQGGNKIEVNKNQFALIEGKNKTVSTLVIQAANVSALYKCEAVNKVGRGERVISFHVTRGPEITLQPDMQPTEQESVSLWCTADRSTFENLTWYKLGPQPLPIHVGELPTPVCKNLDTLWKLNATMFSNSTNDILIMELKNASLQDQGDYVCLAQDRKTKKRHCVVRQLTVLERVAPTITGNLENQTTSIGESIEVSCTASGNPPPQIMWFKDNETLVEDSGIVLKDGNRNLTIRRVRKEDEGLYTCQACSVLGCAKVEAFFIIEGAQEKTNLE
Experimental: as §1, §2

[8] = target: T3, soluble KDR Ig4-7 domain; experiment: ELISA, KDR Ig4-7 coat (1:1 diln.), antibody 0.1 ug/mL
Experimental: as §1, §2

[9] = target: T4, cynomolgus KDR (cynomolgus monkey, UniProt A0A2K5VE63 20-1356); experiment: FACS on Cyno KDR/293T transfectants, antibody 5 ug/mL
T4 construct: whole, on cells; also called Cyno KDR
T4 sequence (A0A2K5VE63 entry or part of it): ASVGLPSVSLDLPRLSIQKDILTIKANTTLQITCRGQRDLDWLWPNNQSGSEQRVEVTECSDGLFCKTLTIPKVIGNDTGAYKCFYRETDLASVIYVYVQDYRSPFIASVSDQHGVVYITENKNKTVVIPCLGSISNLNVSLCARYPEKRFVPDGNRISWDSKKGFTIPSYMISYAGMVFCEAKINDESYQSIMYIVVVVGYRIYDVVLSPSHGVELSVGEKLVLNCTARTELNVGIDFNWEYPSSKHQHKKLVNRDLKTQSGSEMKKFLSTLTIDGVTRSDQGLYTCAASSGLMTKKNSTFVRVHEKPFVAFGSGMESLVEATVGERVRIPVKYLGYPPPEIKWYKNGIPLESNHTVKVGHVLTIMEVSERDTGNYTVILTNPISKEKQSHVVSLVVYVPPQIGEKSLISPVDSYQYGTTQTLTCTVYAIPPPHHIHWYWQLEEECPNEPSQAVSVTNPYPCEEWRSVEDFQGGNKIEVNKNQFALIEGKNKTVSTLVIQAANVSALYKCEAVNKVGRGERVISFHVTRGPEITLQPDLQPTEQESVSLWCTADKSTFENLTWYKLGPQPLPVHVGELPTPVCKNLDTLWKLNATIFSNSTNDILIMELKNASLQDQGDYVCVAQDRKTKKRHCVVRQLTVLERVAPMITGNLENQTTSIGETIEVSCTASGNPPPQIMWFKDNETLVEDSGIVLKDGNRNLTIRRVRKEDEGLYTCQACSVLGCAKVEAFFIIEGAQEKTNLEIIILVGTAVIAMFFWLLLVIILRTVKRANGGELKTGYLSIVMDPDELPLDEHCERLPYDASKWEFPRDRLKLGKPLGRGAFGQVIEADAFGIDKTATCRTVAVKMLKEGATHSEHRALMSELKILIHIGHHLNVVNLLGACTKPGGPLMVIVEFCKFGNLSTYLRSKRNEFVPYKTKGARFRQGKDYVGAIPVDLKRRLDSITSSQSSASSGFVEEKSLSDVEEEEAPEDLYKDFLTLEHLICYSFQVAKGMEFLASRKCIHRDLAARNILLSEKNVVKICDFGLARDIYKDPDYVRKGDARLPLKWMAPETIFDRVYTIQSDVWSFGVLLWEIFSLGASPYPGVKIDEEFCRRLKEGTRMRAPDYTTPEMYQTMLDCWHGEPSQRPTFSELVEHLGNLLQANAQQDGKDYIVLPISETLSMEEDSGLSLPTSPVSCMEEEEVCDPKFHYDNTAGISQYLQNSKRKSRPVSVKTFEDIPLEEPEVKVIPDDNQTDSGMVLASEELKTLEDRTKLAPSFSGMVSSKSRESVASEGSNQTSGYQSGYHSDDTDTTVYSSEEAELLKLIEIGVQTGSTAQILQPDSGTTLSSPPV
Experimental: The binding of purified antibodies to cell-bound cynomolgus KDR (with parental cells as negative control) was tested by FACS analysis in this assay.
Cynomolgus KDR was cloned in 3 pieces. One piece was PCR amplified from cynomolgus lung cDNA, and the remaining two pieces were PCR amplified from cynomolgus kidney cDNA. The three PCR products were inserted into pCR3.1 Bid vector. […] Transfected cells were seeded at 50,000 cells/well and incubated with 5 μg/mL of candidate antibody for one hour at 4° C. The cells were then washed and incubated with secondary antibody (Cy5-conjugated goat anti-human antibody, or Cy5-conjugated rabbit anti-goat antibody, plus 7-Amino-Actinomycin (7AAD)) for 15 minutes at 4° C. Binding between cynomolgus KDR and purified antibody was detected by FACS analysis.

[10] = target: T3, soluble KDR Ig4-7 domain; experiment: ELISA, KDR Ig4-7 coat (1:1 diln.), antibody 0.01 ug/mL
Experimental: as §1, §2

[11] = target: T1, human KDR; experiment: FACS titration of purified antibody on HUVEC cells (FACS Kd)
Experimental: The binding affinities of the purified antibodies for endogenously-expressed KDR in HUVEC cells was measured. HUVEC cells were seeded at 150,000 cells/well and incubated with titrations of purified antibody for 4 hours at 4° C. The cells were then washed and incubated with goat anti-human IgG-Fc-Cy5+5 μg/mL 7-Amino-Actinomycin (7AAD) for 30 minutes at 4° C. Bound KDR was detected using FACS analysis.

[12] = target: T1, human KDR; experiment: FACS competition on 293T/human KDR transfectants; antibody 5 ug/mL first, then competitor VEGF165 50 ng/mL; bound VEGF165 detected
Experimental: (§3) Transfected cells were then seeded at 50,000 cells/well and incubated with 5 μg/mL of candidate antibody for one hour at 4° C. […] After washing, the cells were incubated with Cy5-conjugated rabbit anti-goat antibody plus 7AAD for 15 minutes at 4° C.

[13] = target: T1, human KDR; experiment: FACS competition on 293T/human KDR transfectants; antibody 5 ug/mL first, then competitor VEGF165 50 ng/mL; inhibition of VEGF binding
Experimental: as §3

[14] = target: T5, mouse KDR (Flk-1)/Fc (Cat. #443-KD/CF, R&D Systems, Inc.) (mouse, UniProt P35918 20-762); experiment: ELISA, Flk-1 coat 5 ug/mL, antibody 1 ug/mL
T5 construct: Bought reagent; also called mouse VEGFR2; KDR mouse ortholog; not shown: Fc of the bought fusion protein
T5 sequence (P35918 20-762 limits assumed): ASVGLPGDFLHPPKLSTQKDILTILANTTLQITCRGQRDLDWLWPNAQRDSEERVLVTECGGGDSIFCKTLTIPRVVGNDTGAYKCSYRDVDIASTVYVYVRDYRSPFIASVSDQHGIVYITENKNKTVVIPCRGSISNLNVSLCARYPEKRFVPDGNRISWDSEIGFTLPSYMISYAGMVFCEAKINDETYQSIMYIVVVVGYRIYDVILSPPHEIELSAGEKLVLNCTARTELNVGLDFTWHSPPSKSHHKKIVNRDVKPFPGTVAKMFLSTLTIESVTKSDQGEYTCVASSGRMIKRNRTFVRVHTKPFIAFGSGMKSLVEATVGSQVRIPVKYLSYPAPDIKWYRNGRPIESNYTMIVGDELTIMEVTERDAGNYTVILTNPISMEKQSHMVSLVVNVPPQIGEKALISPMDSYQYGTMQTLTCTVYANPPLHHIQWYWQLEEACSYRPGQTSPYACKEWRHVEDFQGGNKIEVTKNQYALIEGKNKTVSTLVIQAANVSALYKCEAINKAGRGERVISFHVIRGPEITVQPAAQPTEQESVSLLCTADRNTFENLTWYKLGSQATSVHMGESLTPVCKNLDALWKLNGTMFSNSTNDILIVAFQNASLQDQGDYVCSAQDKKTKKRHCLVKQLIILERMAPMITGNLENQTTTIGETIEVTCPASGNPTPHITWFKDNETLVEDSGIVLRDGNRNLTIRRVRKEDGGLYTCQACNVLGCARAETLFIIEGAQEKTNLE
Experimental: as §1, §2

[15] = target: T5, mouse KDR (Flk-1)/Fc (Cat. #443-KD/CF, …); experiment: ELISA, Flk-1 coat 5 ug/mL, antibody 0.1 ug/mL
Experimental: as §1, §2

[16] = target: T5, mouse KDR (Flk-1)/Fc (Cat. #443-KD/CF, …); experiment: ELISA, Flk-1 coat 5 ug/mL, antibody 0.01 ug/mL
Experimental: as §1, §2

T1 sequence (P35968 20-1356): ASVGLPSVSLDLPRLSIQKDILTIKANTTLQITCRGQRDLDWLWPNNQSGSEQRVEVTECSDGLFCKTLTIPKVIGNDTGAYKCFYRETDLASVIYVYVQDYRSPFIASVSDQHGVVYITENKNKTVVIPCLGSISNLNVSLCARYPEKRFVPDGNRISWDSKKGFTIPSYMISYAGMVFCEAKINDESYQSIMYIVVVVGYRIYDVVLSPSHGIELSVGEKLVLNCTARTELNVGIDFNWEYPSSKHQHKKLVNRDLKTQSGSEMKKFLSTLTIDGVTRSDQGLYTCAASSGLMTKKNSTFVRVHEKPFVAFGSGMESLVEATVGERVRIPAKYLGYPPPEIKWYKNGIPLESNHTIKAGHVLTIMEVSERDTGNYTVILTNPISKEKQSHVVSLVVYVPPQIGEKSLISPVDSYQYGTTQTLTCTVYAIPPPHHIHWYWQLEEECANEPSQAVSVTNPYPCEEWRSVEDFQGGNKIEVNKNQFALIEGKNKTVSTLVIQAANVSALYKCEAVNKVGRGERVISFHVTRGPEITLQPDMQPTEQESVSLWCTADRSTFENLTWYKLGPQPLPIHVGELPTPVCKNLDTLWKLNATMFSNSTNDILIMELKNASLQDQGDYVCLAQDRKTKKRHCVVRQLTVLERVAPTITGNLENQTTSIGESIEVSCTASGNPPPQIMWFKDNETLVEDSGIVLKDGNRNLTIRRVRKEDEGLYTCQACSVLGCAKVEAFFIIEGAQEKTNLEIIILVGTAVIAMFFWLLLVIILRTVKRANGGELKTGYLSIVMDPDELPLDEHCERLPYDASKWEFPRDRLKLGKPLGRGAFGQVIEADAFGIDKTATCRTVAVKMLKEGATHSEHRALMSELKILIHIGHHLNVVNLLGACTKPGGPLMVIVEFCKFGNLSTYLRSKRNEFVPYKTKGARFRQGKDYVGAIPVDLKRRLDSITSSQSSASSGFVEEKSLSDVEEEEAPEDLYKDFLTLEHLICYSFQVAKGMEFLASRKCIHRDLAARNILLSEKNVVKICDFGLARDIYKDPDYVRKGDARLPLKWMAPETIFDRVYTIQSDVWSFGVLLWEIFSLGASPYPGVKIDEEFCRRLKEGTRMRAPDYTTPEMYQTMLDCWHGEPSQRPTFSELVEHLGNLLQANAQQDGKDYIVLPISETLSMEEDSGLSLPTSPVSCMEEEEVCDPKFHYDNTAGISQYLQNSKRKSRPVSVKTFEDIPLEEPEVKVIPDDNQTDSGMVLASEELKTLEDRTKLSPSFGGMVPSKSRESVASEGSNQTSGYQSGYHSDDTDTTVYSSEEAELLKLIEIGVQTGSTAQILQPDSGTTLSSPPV

B1: 21H6 (antibody, V domains shown)
VH: QVQLVESGGGLVKPGGSLRLSCAASGFTFSDYYMSWIRQAPGKGLEWVSYISNSGITIYYADSVKGRFTISRDNAKNSLYLQMNSLRAGDTAVYYCAREEWYSSRWYRNFDYWGQGTLVTVSS
VL: DIQMTQFSSSLSASVGDRVTITCRASQSISRYLNWYQQKPGKAPKLLIYAASSLQSGVPSRFNGSGSGTDFTLTISSLQPEDFATYYCQQSYSAPLTFGGGTKVEIK
notes: Fully human monoclonal antibody from a XenoMouse hybridoma, purified
KDR tyrosine phosphorylation in HUVEC, EC50 (nM), Average [1]: 6.9 nM | KDR tyrosine phosphorylation in HUVEC, EC50 (nM), N = 1 [1]: 7.1 nM | KDR tyrosine phosphorylation in HUVEC, EC50 (nM), N = 2 [1]: 6.7 nM | KDR tyrosine phosphorylation in HUVEC, Maximum Inhibition at 100 nM (% Inhibition), Average [1]: 82% | KDR tyrosine phosphorylation in HUVEC, Maximum Inhibition at 100 nM (% Inhibition), N = 1 [1]: 81% | KDR tyrosine phosphorylation in HUVEC, Maximum Inhibition at 100 nM (% Inhibition), N = 2 [1]: 84% | HUVEC survival, Maximum Inhibition at 50 nM (% Inhibition), Average [2]: 96% | HUVEC survival, Maximum Inhibition at 50 nM (% Inhibition), N = 1 [2]: 96% | HUVEC survival, Maximum Inhibition at 50 nM (% Inhibition), N = 2 [2]: 96% | 6-keto Prostaglandin F1α release, EC50 (nM), Average [3]: 6.3 nM | 6-keto Prostaglandin F1α release, EC50 (nM), N = 1 [3]: 7.3 nM | 6-keto Prostaglandin F1α release, EC50 (nM), N = 2 [3]: 5.4 nM | 6-keto Prostaglandin F1α release, Maximum Inhibition (% Inhibition), Average [3]: 77% | 6-keto Prostaglandin F1α release, Maximum Inhibition (% Inhibition), N = 1 (200 nM) [3]: 80% | 6-keto Prostaglandin F1α release, Maximum Inhibition (% Inhibition), N = 2 (333 nM) [3]: 75% | ELISA reading [4]: 1.46 | ELISA reading [5]: 0.139 | ELISA reading [6]: 0.087 | ELISA reading [7]: 0.087 | ELISA reading [8]: 0.074 | FACS Geometric Mean Fluorescence [9]: 102 | ELISA reading [10]: 0.074 | Kd [11]: 17.9 nM | FACS Geometric Mean Fluorescence (bound VEGF165) [12]: 133 | % Inhibition [13]: -3%

B2: 27D10 (antibody, V domains shown)
VH: QLQLQESGPGLVKPSETLSLTCTVSGGSISSRSDYWGWIRQPPGKGLEWIGTIYYSGSTFYNPSLKSRVTISVDTSKNQFSLKLSSVTAADTAVYYCARQQLVLYYFDYWGQGTLVTVSS
VL: not shown
notes: Fully human monoclonal antibody from a XenoMouse hybridoma (IgG2 or IgG4 strain), purified
KDR tyrosine phosphorylation in HUVEC, EC50 (nM), Average [1]: 1.9 nM | KDR tyrosine phosphorylation in HUVEC, EC50 (nM), N = 1 [1]: 1.6 nM | KDR tyrosine phosphorylation in HUVEC, EC50 (nM), N = 2 [1]: 2.3 nM | KDR tyrosine phosphorylation in HUVEC, Maximum Inhibition at 100 nM (% Inhibition), Average [1]: 72% | KDR tyrosine phosphorylation in HUVEC, Maximum Inhibition at 100 nM (% Inhibition), N = 1 [1]: 70% | KDR tyrosine phosphorylation in HUVEC, Maximum Inhibition at 100 nM (% Inhibition), N = 2 [1]: 75% | HUVEC survival, Maximum Inhibition at 50 nM (% Inhibition), Average [2]: 89% | HUVEC survival, Maximum Inhibition at 50 nM (% Inhibition), N = 1 [2]: 93% | HUVEC survival, Maximum Inhibition at 50 nM (% Inhibition), N = 2 [2]: 85% | ELISA reading [14]: 2.14 | ELISA reading [15]: 1.48 | ELISA reading [4]: 1.36 | ELISA reading [16]: 0.537 | ELISA reading [5]: 0.187 | ELISA reading [6]: 0.087 | ELISA reading [7]: 0.076 | ELISA reading [8]: 0.086 | FACS Geometric Mean Fluorescence [9]: 89.4 | ELISA reading [10]: 0.073 | Kd [11]: 1.9 nM | FACS Geometric Mean Fluorescence (bound VEGF165) [12]: 111 | % Inhibition [13]: 15%

B3: 29D4 (antibody, V domains shown)
VH: B2 VH with D34N, S58H, F60Y, T70S, A90T, V94L, D108E
VL: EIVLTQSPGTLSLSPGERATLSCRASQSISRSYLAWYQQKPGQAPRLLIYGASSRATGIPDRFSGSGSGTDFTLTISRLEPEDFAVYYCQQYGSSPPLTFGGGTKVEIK
notes: as for B2
KDR tyrosine phosphorylation in HUVEC, EC50 (nM), Average [1]: 1.9 nM | KDR tyrosine phosphorylation in HUVEC, EC50 (nM), N = 1 [1]: 2 nM | KDR tyrosine phosphorylation in HUVEC, EC50 (nM), N = 2 [1]: 1.9 nM | KDR tyrosine phosphorylation in HUVEC, Maximum Inhibition at 100 nM (% Inhibition), Average [1]: 75% | KDR tyrosine phosphorylation in HUVEC, Maximum Inhibition at 100 nM (% Inhibition), N = 1 [1]: 74% | KDR tyrosine phosphorylation in HUVEC, Maximum Inhibition at 100 nM (% Inhibition), N = 2 [1]: 77% | HUVEC survival, Maximum Inhibition at 50 nM (% Inhibition), Average [2]: 92% | HUVEC survival, Maximum Inhibition at 50 nM (% Inhibition), N = 1 [2]: 89% | HUVEC survival, Maximum Inhibition at 50 nM (% Inhibition), N = 2 [2]: 95% | 6-keto Prostaglandin F1α release, EC50 (nM), Average [3]: 3.2 nM | 6-keto Prostaglandin F1α release, EC50 (nM), N = 1 [3]: 3.2 nM | 6-keto Prostaglandin F1α release, EC50 (nM), N = 2 [3]: 3.2 nM | 6-keto Prostaglandin F1α release, Maximum Inhibition (% Inhibition), Average [3]: 56% | 6-keto Prostaglandin F1α release, Maximum Inhibition (% Inhibition), N = 1 (200 nM) [3]: 45% | 6-keto Prostaglandin F1α release, Maximum Inhibition (% Inhibition), N = 2 (333 nM) [3]: 67% | ELISA reading [14]: 3.29 | ELISA reading [15]: 2.59 | ELISA reading [4]: 2.15 | ELISA reading [16]: 1.17 | ELISA reading [5]: 0.096 | ELISA reading [6]: 0.089 | ELISA reading [7]: 0.082 | ELISA reading [8]: 0.078 | FACS Geometric Mean Fluorescence [9]: 115 | ELISA reading [10]: 0.08 | Kd [11]: 1 nM | FACS Geometric Mean Fluorescence (bound VEGF165) [12]: 116 | % Inhibition [13]: 11%
